# Experimental data reported in US20240117073A1, “METHODS OF TREATING NEOPLASTIC ASTROCYTOMA” (Ludwig Institute for Cancer Research Ltd., priority 2009, published 2024).
# Values joined by “and” are separate entries in the source; they are usually repeats but may differ in a detail not shown here. Equal entries are not always repeated.
# Tested on: U87MG.wtEGFR xenografts
# Test: established xenograft model
# Format: in vivo, nude mice
# Conditions: day control animals were sacrificed; 1 mg injections
# Method: Tumor cells (3×10^6) in […] of PBS were inoculated subcutaneously into both flanks of 4-6 week old female nude mice (Animal Research Centre, Western Australia, Australia). […] Treatment was continued for a total of 6 doses, 3 times per week for 2 weeks. In the established model, treatment was started when tumors had reached a mean volume of 65±6.42 mm^3 (U87MG.Δ2-7), 84±9.07 mm^3 (U87MG), 73±7.5 mm^3 (U87MG.wtEGFR) or 201±19.09 mm^3 (A431 tumors). Tumor volume in mm^3 was determined using the formula (length×width^2)/2, where length was the longest axis and width the measurement at right angles to the length (Clark et al. (2000) Therapeutic efficacy of anti-Lewis (y) humanized 3S 193 radioimmunotherapy in a breast cancer model: enhanced activity when combined with Taxol chemotherapy. Clin. Cancer Res. 6, 3621-3628). Data was expressed as mean tumor volume±S.E. for each treatment group. Statistical analysis was performed at given time points using Student's t-test. Animals were euthanized when the xenografts reached an approximate volume of 1.5 cm^3 and the tumors excised for histological examination. This research project was approved by the Animal Ethics Committee of the Austin and Repatriation Medical Centre. […]
molecule,measurement,value
"mAb806: murine monoclonal antibody recognizing de2-7 EGFR and amplified EGFR; VH SEQ ID NO:2, VL SEQ ID NO:4 (antibody, listed as Mus musculus, V domains shown) VH: MRVLILLWLFTAFPGVLSDVQLQESGPSLVKPSQSLSLTCTVTGYSITSDFAWNWIRQFPGNKLEWMGYISYSGNTRYNPSLKSRISITRDTSKNQFFLQLNSVTIEDTATYYCVTAGRGFPYWGQGTLVTVSA VL: MVSTAQFLAFLLLWFPGARCDILMTQSPSSMSVSLGDTVSITCHSSQDINSNIGWLQQRPGKSFKGLIYHGTNLDDEVPSRFSGSGSGADYSLTISSLESEDFADYYCVQYAQFPWTFGGGTKLEIKR",mean tumor volume,468±78.38 mm^3 and 500±80 mm^3
